According to patent publication US20230272051A1 (CENTIVAX, published 2023):
Changes are numbered by the printed parent chain.

B1: COVID19_P01_H05 (scFv, V domains shown)
VH: QVQLVQSGAEVKKPGSSVKVSCKASGGTFSNFALTWVRQAPGQGLEWMGLINPSGGSTSYAQRFQGRVTITADESTSTAYMELSSLRSEDTAVYYCARDSVMGGMDVWGQGTLVTVSS
VL: SSYVLTQPPSVSVAPGKTARITCGGNNIGSKSVHWYQQKPGQAPVLVIYYDSDRPSGIPERFSGSNSGNTATLTISRVEAGDEADYYCQVWASSSDYVFGGGTKLTVLA
B2: COVID19_P13_H07 (scFv, V domains shown)
VH: QVQLVQSGAEVKKPGSSVKVSCKASGYTFINYDINWVRQAPGQGLEWMGGITPIFGTAKYAQKFQGRVTITADESTSTAYMELSSLRSEDTAVYYCARDTVMGGMDVWGQGTLVTVSS
VL: B1 VL with A92D
B3: COVID19_P01_H07 (scFv, V domains shown)
VH: QVQLVQSGAEVKKPGSSVKVSCKASGYSFNNYDLHWVRQAPGQGLEWMGGIIPIFDTANYAQKFQGRVTITADESTSTAYMELSSLRSEDTAVYYCALETVMGGMVKWGQGTLVTVSS
VL: B1 VL with V78I, A92D, S95G
B4: COVID19_P01_H06 (scFv, V domains shown)
VH: QVQLVQSGAEVKKPGSSVKVSCKASGYTFTSYYMHWVRQAPGQGLEWMGLIDPSGGTTSYAQKFQGRVTITADESTSTAYMELSSLRSEDTAVYYCVWDTVMGGMDVWGQGTLVTVSS
VL: SYVLTQPPSVSVAPGKTAARITCGGNNIGSKSVHWYQQKPGQAPVLVIYKDGERPSGIPERFSGSNSRNTATLTISRVEAGDEADYYCQVWDSSSLYVFGGGTKLTVLA
B5: COVID19_P02_A04 (scFv, V domains shown)
VH: B4 VH with T28A, L50V, G55E, T57S, Y60N, Q62R, W98S
VL: B1 VL with I48V, Y50D, A92D, D96L
B6: COVID19_P02_A11 (scFv, V domains shown)
VH: QVQLVQSGAEVKKPGSSVKVSCKASGSTFSMFAINWVRQAPGQGLEWVGVINPRGSSTTYAQKFQGRVTITADESTSTAYMELSSLRSEDTAVYYCARDTVMGGMDVWGQGTLVTVSS
VL: B1 VL with A92D, S93R
B7: COVID19_P01_B08 (scFv, V domains shown)
VH: B1 VH with L34I, L50V, S54G, S59T, R63T, S100T
VL: B1 VL with A92D
B8: COVID19_P14_B05 (scFv, V domains shown)
VH: B1 VH with N31S, F32Y, A33T, L34I, T35S, L50I, R63K, S100T, D106G
VL: B1 VL with A92D, D96F
B9: COVID19_P14_H10 (scFv, V domains shown)
VH: QVQLVQSGAEVKKPGSSVKVSCKASGGSFSRFPISWVRQAPGQGLEWMGGIIPIFGTANYAQRFQGRVTITADESTSTAYMELSSLRSEDTAVYYCALETVMGGLQVWGQGTLVTVSS
VL: B1 VL with A92D
B10: COVID19_P13_B05 (scFv, V domains shown)
VH: QVQLVQSGAEVKKPGSSVKVSCKASGYTFTSYDINWVRQAPGQGLEWMGWINPNSGGTNYAQKFQGRVTITADESTSTAYMELSSLRSEDTAVYYCARDTFFGGMDVWGQGTLVTVSS
VL: B1 VL with A92D, D96Y
B11: COVID19_P14_F07 (scFv, V domains shown)
VH: B10 VH with Y27G, T30S, D33A, N35S, V37M, S85N, F101Y, F102W
VL: B1 VL with A92D, D96F
B12: COVID19_P14_F05 (scFv, V domains shown)
VH: B6 VH with S27N, R54I, S57T
VL: B1 VL with A92V
B13: COVID19_P01_E11 (scFv, V domains shown)
VH: QVQLVQSGAEVKKPGSSVKVSCKASGGTFSNYTITWVRQAPGQGLEWLGWISAYNGNTDYAQKLQGRVTITADESTSTAYMELSSLRSEDTAVYYCARDALMGGMDVWGQGTLVTVSS
VL: B1 VL with A92D, S94R
B14: COVID19_P01_H10 (scFv, V domains shown)
VH: QVQLVQSGAEVKKPGSSVKVSCKASGGTFGNYPITWVRQAPGQGLEWMGIIYPGDSDARYRPSFQGRVTITADESTSTAYMELSSLRSEDTAVYYCARDFSMGGMDVWGQGTLVTVSS
VL: B1 VL with A92D, S93D
notes: also called COVID19_PO1_H10
B15: COVID19_P14_B07 (scFv, V domains shown)
VH: B10 VH with D33G, N35S, R98V, D99E, F101V, F102M, M105F, D106T
VL: B1 VL with A92D
B16: COVID19_P14_F06 (scFv, V domains shown)
VH: B1 VH with N31S, L34I, T35I, G49A, G55S, S57T, R63K, D99E, S100T
VL: B1 VL with A92D, D96H
B17: COVID19_P14_E07 (scFv, V domains shown)
VH: B2 VH with K59N
VL: B1 VL with A92D, S94H
B18: COVID19_P14_F08 (scFv, V domains shown)
VH: QVQLVQSGAEVKKPGSSVKVSCKASGYTFTAFYIHWVRQAPGQGLEWMGGIIPISGTANYAQKFQGRATITADESTSTAYMELSSLRSEDTAVYYCAREVVMGGMDVWGQGTLVTVSS
VL: B1 VL with A92D, S94T
B19: COVID19_P14_E01 (scFv, V domains shown)
VH: B3 VH with S28T, N30T, N31S, D33Y, L34M, I52T, D56G, L98V, V106Q, K107M
VL: B1 VL with A92D
B20: COVID19_P14_G01 (scFv, V domains shown)
VH: B2 VH with T28N, D33Y, I34L, N35H, T57I, K59N, D99E
VL: B1 VL with N27K, A92D, S94G

Each binder was assayed against SARS-CoV-2 spike protein (on pseudovirus) (SARS-CoV-2, UniProt P0DTC2 14-1273) (assay: cell-based or functional assay).

Compared with B1, B2 is 2.3-fold lower in “IC50 [µg/mL] pseudotyped lenti neutralization” value: 35 µg/mL for the first, 15 µg/mL for the second.

Going from B3 to B4, the “IC50 [µg/mL] pseudotyped lenti neutralization” value falls from 6.5 µg/mL to 2.1 µg/mL (3.1-fold).

The binders below were run against T1, SARS-CoV-2 Receptor Binding Domain (RBD) protein (SARS-CoV-2, UniProt P0DTC2 319-541) (assay: SPR (Carterra LSA); scFv captured by anti-V5, RBD as analyte).
T1 construct: also called Sars-Cov-2 (COV2)

First: B1
Second: B5
The Kd of the first is 37-fold lower: 1.11 nM for the first, 41.4 nM for the second.

B6 and B7 are within 1.5-fold of each other in Kd: 45.1 nM for the first, 33.8 nM for the second.

Going from B8 to B9, the Kd falls from 48 nM to 28.3 nM (1.7-fold). The second binds more tightly here.

B10 and B11 are within 1.5-fold of each other in Kd: 21.9 nM for the first, 17 nM for the second.

First: B12
Second: B13
The Kd of the first is 3.7-fold higher: 21.7 nM for the first, 5.87 nM for the second.

B14 and B15 are within 1.5-fold of each other in Kd: 39.3 nM for the first, 34.2 nM for the second.

Going from B16 to B17, the Kd falls from 48.3 nM to 5.67 nM (8.5-fold). The second binds more tightly here.

Compared with B18, B2 is 13-fold lower in Kd: 25 nM for the first, 1.92 nM for the second. The second binds more tightly here.

Compared with B19, B3 is 13-fold lower in Kd: 10.7 nM for the first, 0.81 nM for the second.

First: B20
Second: B4
The Kd of the first is 6.5-fold higher: 8.45 nM for the first, 1.31 nM for the second.

First: B1
Second: B5
The koff of the first is 40-fold lower: 0.000468 s⁻¹ for the first, 0.0187 s⁻¹ for the second.

B6 and B7 are within 1.5-fold of each other in koff: 0.0147 s⁻¹ for the first, 0.0149 s⁻¹ for the second.

B8 and B9 are within 1.5-fold of each other in koff: 0.0141 s⁻¹ for the first, 0.01 s⁻¹ for the second.

Compared with B10, B11 is 1.5-fold lower in koff: 0.0037 s⁻¹ for the first, 0.00245 s⁻¹ for the second.

Going from B12 to B13, the koff falls from 0.00152 s⁻¹ to 0.000586 s⁻¹ (2.6-fold).

B14 and B15 are within 1.5-fold of each other in koff: 0.0148 s⁻¹ for the first, 0.0131 s⁻¹ for the second.

Compared with B16, B17 is 3.1-fold lower in koff: 0.0024 s⁻¹ for the first, 0.000778 s⁻¹ for the second.

Going from B18 to B2, the koff falls from 0.00283 s⁻¹ to 0.00031 s⁻¹ (9.1-fold).

Going from B19 to B3, the koff falls from 0.000819 s⁻¹ to 0.000401 s⁻¹ (2-fold).

B20 and B4 are within 1.5-fold of each other in koff: 0.000842 s⁻¹ for the first, 0.000621 s⁻¹ for the second.

B1 and B5 are within 1.5-fold of each other in kon: 423000 M⁻¹ s⁻¹ for the first, 451000 M⁻¹ s⁻¹ for the second.

B6 and B7 are within 1.5-fold of each other in kon: 326000 M⁻¹ s⁻¹ for the first, 442000 M⁻¹ s⁻¹ for the second.

B8 and B9 are within 1.5-fold of each other in kon: 294000 M⁻¹ s⁻¹ for the first, 355000 M⁻¹ s⁻¹ for the second.

B10 and B11 are within 1.5-fold of each other in kon: 170000 M⁻¹ s⁻¹ for the first, 144000 M⁻¹ s⁻¹ for the second.

B12 and B13 are within 1.5-fold of each other in kon: 69900 M⁻¹ s⁻¹ for the first, 99900 M⁻¹ s⁻¹ for the second.

B14 and B15 are within 1.5-fold of each other in kon: 377000 M⁻¹ s⁻¹ for the first, 383000 M⁻¹ s⁻¹ for the second.

Going from B16 to B17, the kon rises from 49700 M⁻¹ s⁻¹ to 137000 M⁻¹ s⁻¹ (2.8-fold).

B18 and B2 are within 1.5-fold of each other in kon: 113000 M⁻¹ s⁻¹ for the first, 160000 M⁻¹ s⁻¹ for the second.

Going from B19 to B3, the kon rises from 76800 M⁻¹ s⁻¹ to 496000 M⁻¹ s⁻¹ (6.5-fold).

Compared with B20, B4 is 4.8-fold higher in kon: 99700 M⁻¹ s⁻¹ for the first, 474000 M⁻¹ s⁻¹ for the second.

The binders below were run against T1, SARS-CoV-2 Receptor Binding Domain … (assay: SPR (Carterra LSA)).

B1 and B5 cannot be ordered by Kd: under 50 nM for the first, under 50 nM for the second.

B6 and B7 cannot be ordered by Kd: under 50 nM for the first, under 50 nM for the second.

B8 and B9 cannot be ordered by Kd: under 50 nM for the first, under 50 nM for the second.

B10 and B11 cannot be ordered by Kd: under 50 nM for the first, under 50 nM for the second.

B12 and B13 cannot be ordered by Kd: under 50 nM for the first, under 50 nM for the second.

B14 and B15 cannot be ordered by Kd: under 50 nM for the first, under 50 nM for the second.

B16 and B17 cannot be ordered by Kd: under 50 nM for the first, under 50 nM for the second.

B18 and B2 cannot be ordered by Kd: under 50 nM for the first, under 50 nM for the second.

B19 and B20 cannot be ordered by Kd: under 50 nM for the first, under 50 nM for the second.
